From publication PMC12102759 (2025)

B1: CBL peptide 538-553 (E3 ubiquitin-protein ligase CBL), 16-mer library wild type / YES SH3 (YES1 SH3 domain, residues 90-152) (parent complex)
chain 1: TLRDLPPPPPPDRPYS
chain 2: not shown
B2: SH3BP2 peptide 408-423 (SH3 domain-binding protein 2), 16-mer library wild type / TNKS ANK (TNKS 12 ANK repeats, residues 174-649) (parent complex)
chain 1: PQLPHLQRSPPDGQSF
chain 2: TGVPAVSGALRELLEACRNGDVSRVKRLVDAANVNAKDMAGRKSSPLHFAAGFGRKDVVEHLLQMGANVHARDDGGLIPLHNACSFGHAEVVSLLLCQGADPNARDNWNYTPLHEAAIKGKIDVCIVLLQHGADPNIRNTDGKSALDLADPSAKAVLTGEYKKDELLEAARSGNEEKLMALLTPLNVNCHASDGRKSTPLHLAAGYNRVRIVQLLLQHGADVHAKDKGGLVPLHNACSYGHYEVTELLLKHGACVNAMDLWQFTPLHEAASKNRVEVCSLLLSHGADPTLVNCHGKSAVDMAPTPELRERLTYEFKGHSLLQAAREADLAKVKKTLALEIINFKQPQSHETALHCAVASLHPKRKQVTELLLRKGANVNEKNKDFMTPLHVAAERAHNDVMEVLHKHGAKMNALDTLGQTALHRAALAGHLQTCRLLLSYGSDPSIISLQGFTAAQMGNEAVQQILSESTPIRTSD

Variants of: B1
Assay: proteomic peptide phage display deep mutational scan (ProP-PD DMS): M13 P8 16-mer library selected against immobilised GST-tagged bait for four days (rounds), NGS of the eluted pools per day and pseudo-replica; bait immobilised on MaxiSorp plates (10 µg), library pre-cleared on GST, 2 h binding at 4 °C, five washes; one round per day, days 1-4; value from days 2 and 3
In the case of chain 1 D12Q, the screen value is reported as 0.00108 average fractional NGS count over selection days 2 and 3 (reads of this peptide / all reads for the bait, averaged over …. For chain 1 D12V, the screen value was 0.00115 average fractional NGS count over selection days 2 and 3 (reads of this peptide / all reads for the bait, averaged over …. With chain 1 D12T the screen value was 0.00128 average fractional NGS count over selection days 2 and 3 (reads of this peptide / all reads for the bait, averaged over …. In the case of chain 1 Y15Q, the screen value is reported as 0.000766 average fractional NGS count over selection days 2 and 3 (reads of this peptide / all reads for the bait, averaged over …. In the case of chain 1 Y15N, the screen value is reported as 7.8e-05 average fractional NGS count over selection days 2 and 3 (reads of this peptide / all reads for the bait, averaged over …. With chain 1 Y15M the screen value was 0.000526 average fractional NGS count over selection days 2 and 3 (reads of this peptide / all reads for the bait, averaged over …. chain 1 R13T was tested, and the screen value was 0.000227 average fractional NGS count over selection days 2 and 3 (reads of this peptide / all reads for the bait, averaged over …. With chain 1 R13H the screen value was 6.28e-05 average fractional NGS count over selection days 2 and 3 (reads of this peptide / all reads for the bait, averaged over …. For chain 1 R13I, the screen value was 0.000728 average fractional NGS count over selection days 2 and 3 (reads of this peptide / all reads for the bait, averaged over …. In the case of chain 1 R13F, the screen value is reported as 0.000441 average fractional NGS count over selection days 2 and 3 (reads of this peptide / all reads for the bait, averaged over …. With chain 1 R13S the screen value was 0.000102 average fractional NGS count over selection days 2 and 3 (reads of this peptide / all reads for the bait, averaged over …. chain 1 P7M was tested, and the screen value was 0.000243 average fractional NGS count over selection days 2 and 3 (reads of this peptide / all reads for the bait, averaged over …. With chain 1 P7T the screen value was 0.000231 average fractional NGS count over selection days 2 and 3 (reads of this peptide / all reads for the bait, averaged over …. In the case of chain 1 P14S, the screen value is reported as 0.00038 average fractional NGS count over selection days 2 and 3 (reads of this peptide / all reads for the bait, averaged over …. With chain 1 P14L the screen value was 0.00213 average fractional NGS count over selection days 2 and 3 (reads of this peptide / all reads for the bait, averaged over …. For chain 1 P14V, the screen value was 0.0011 average fractional NGS count over selection days 2 and 3 (reads of this peptide / all reads for the bait, averaged over …. chain 1 P11D was tested, and the screen value was 7.75e-05 average fractional NGS count over selection days 2 and 3 (reads of this peptide / all reads for the bait, averaged over …. In the case of chain 1 P11R, the screen value is reported as 0.000288 average fractional NGS count over selection days 2 and 3 (reads of this peptide / all reads for the bait, averaged over …. In the case of chain 1 P11T, the screen value is reported as 0.00257 average fractional NGS count over selection days 2 and 3 (reads of this peptide / all reads for the bait, averaged over …. For chain 1 P11Y, the screen value was 0.00117 average fractional NGS count over selection days 2 and 3 (reads of this peptide / all reads for the bait, averaged over …. For chain 1 P11K, the screen value was 0.00117 average fractional NGS count over selection days 2 and 3 (reads of this peptide / all reads for the bait, averaged over …. With chain 1 L5I the screen value was 5.25e-05 average fractional NGS count over selection days 2 and 3 (reads of this peptide / all reads for the bait, averaged over …. chain 1 P9A was tested, and the screen value was 0.000623 average fractional NGS count over selection days 2 and 3 (reads of this peptide / all reads for the bait, averaged over …. In the case of chain 1 L2M, the screen value is reported as 0.00216 average fractional NGS count over selection days 2 and 3 (reads of this peptide / all reads for the bait, averaged over …. chain 1 L2A was tested, and the screen value was 0.00082 average fractional NGS count over selection days 2 and 3 (reads of this peptide / all reads for the bait, averaged over …. With chain 1 S16Q the screen value was 9.78e-05 average fractional NGS count over selection days 2 and 3 (reads of this peptide / all reads for the bait, averaged over …. With chain 1 S16A the screen value was 0.00886 average fractional NGS count over selection days 2 and 3 (reads of this peptide / all reads for the bait, averaged over …. In the case of chain 1 S16H, the screen value is reported as 0.00402 average fractional NGS count over selection days 2 and 3 (reads of this peptide / all reads for the bait, averaged over …. With chain 1 S16L the screen value was 0.000883 average fractional NGS count over selection days 2 and 3 (reads of this peptide / all reads for the bait, averaged over …. In the case of chain 1 D4F, the screen value is reported as 5.77e-05 average fractional NGS count over selection days 2 and 3 (reads of this peptide / all reads for the bait, averaged over …. With chain 1 D4Y the screen value was 0.00195 average fractional NGS count over selection days 2 and 3 (reads of this peptide / all reads for the bait, averaged over …. In the case of chain 1 D4H, the screen value is reported as 0.000257 average fractional NGS count over selection days 2 and 3 (reads of this peptide / all reads for the bait, averaged over …. chain 1 D4S was tested, and the screen value was 7.92e-05 average fractional NGS count over selection days 2 and 3 (reads of this peptide / all reads for the bait, averaged over …. In the case of chain 1 D4T, the screen value is reported as 0.00181 average fractional NGS count over selection days 2 and 3 (reads of this peptide / all reads for the bait, averaged over …. For chain 1 P10I, the screen value was 0.00183 average fractional NGS count over selection days 2 and 3 (reads of this peptide / all reads for the bait, averaged over …. chain 1 P10F was tested, and the screen value was 0.0021 average fractional NGS count over selection days 2 and 3 (reads of this peptide / all reads for the bait, averaged over …. chain 1 P10N was tested, and the screen value was 0.000197 average fractional NGS count over selection days 2 and 3 (reads of this peptide / all reads for the bait, averaged over …. With chain 1 P10W the screen value was 0.00035 average fractional NGS count over selection days 2 and 3 (reads of this peptide / all reads for the bait, averaged over …. With chain 1 P10M the screen value was 0.000512 average fractional NGS count over selection days 2 and 3 (reads of this peptide / all reads for the bait, averaged over …. With chain 1 P10S the screen value was 0.00132 average fractional NGS count over selection days 2 and 3 (reads of this peptide / all reads for the bait, averaged over …. With chain 1 R3K the screen value was 0.000536 average fractional NGS count over selection days 2 and 3 (reads of this peptide / all reads for the bait, averaged over …. For chain 1 R3F, the screen value was 0.000372 average fractional NGS count over selection days 2 and 3 (reads of this peptide / all reads for the bait, averaged over …. In the case of chain 1 R3I, the screen value is reported as 0.000159 average fractional NGS count over selection days 2 and 3 (reads of this peptide / all reads for the bait, averaged over ….

Variants of: B2
Assay: as above
chain 1 L6P was tested, and the screen value was 0.000739 average fractional NGS count over selection days 2 and 3 (reads of this peptide / all reads for the bait, averaged over …. chain 1 L6Q was tested, and the screen value was 0.000145 average fractional NGS count over selection days 2 and 3 (reads of this peptide / all reads for the bait, averaged over …. With chain 1 L6N the screen value was 0.000459 average fractional NGS count over selection days 2 and 3 (reads of this peptide / all reads for the bait, averaged over …. With chain 1 L6T the screen value was 0.000389 average fractional NGS count over selection days 2 and 3 (reads of this peptide / all reads for the bait, averaged over …. For chain 1 L6W, the screen value was 0.000131 average fractional NGS count over selection days 2 and 3 (reads of this peptide / all reads for the bait, averaged over …. chain 1 Q7I was tested, and the screen value was 0.000144 average fractional NGS count over selection days 2 and 3 (reads of this peptide / all reads for the bait, averaged over …. chain 1 Q7W was tested, and the screen value was 0.000561 average fractional NGS count over selection days 2 and 3 (reads of this peptide / all reads for the bait, averaged over …. For chain 1 Q7G, the screen value was 0.00109 average fractional NGS count over selection days 2 and 3 (reads of this peptide / all reads for the bait, averaged over …. chain 1 Q7D was tested, and the screen value was 0.00248 average fractional NGS count over selection days 2 and 3 (reads of this peptide / all reads for the bait, averaged over …. For chain 1 Q7T, the screen value was 0.000465 average fractional NGS count over selection days 2 and 3 (reads of this peptide / all reads for the bait, averaged over …. With chain 1 Q7E the screen value was 0.000295 average fractional NGS count over selection days 2 and 3 (reads of this peptide / all reads for the bait, averaged over …. For chain 1 Q7K, the screen value was 0.000537 average fractional NGS count over selection days 2 and 3 (reads of this peptide / all reads for the bait, averaged over …. chain 1 P11G was tested, and the screen value was 0.0132 average fractional NGS count over selection days 2 and 3 (reads of this peptide / all reads for the bait, averaged over …. In the case of chain 1 Q2L, the screen value is reported as 0.00153 average fractional NGS count over selection days 2 and 3 (reads of this peptide / all reads for the bait, averaged over …. For chain 1 Q2A, the screen value was 0.000765 average fractional NGS count over selection days 2 and 3 (reads of this peptide / all reads for the bait, averaged over …. chain 1 Q2M was tested, and the screen value was 0.000169 average fractional NGS count over selection days 2 and 3 (reads of this peptide / all reads for the bait, averaged over …. With chain 1 Q2D the screen value was 0.00112 average fractional NGS count over selection days 2 and 3 (reads of this peptide / all reads for the bait, averaged over …. chain 1 Q2P was tested, and the screen value was 0.00147 average fractional NGS count over selection days 2 and 3 (reads of this peptide / all reads for the bait, averaged over …. For chain 1 Q2N, the screen value was 0.000225 average fractional NGS count over selection days 2 and 3 (reads of this peptide / all reads for the bait, averaged over …. In the case of chain 1 Q2F, the screen value is reported as 0.000172 average fractional NGS count over selection days 2 and 3 (reads of this peptide / all reads for the bait, averaged over …. With chain 1 Q2E the screen value was 0.000696 average fractional NGS count over selection days 2 and 3 (reads of this peptide / all reads for the bait, averaged over …. In the case of chain 1 Q2K, the screen value is reported as 0.000141 average fractional NGS count over selection days 2 and 3 (reads of this peptide / all reads for the bait, averaged over …. With chain 1 Q2S the screen value was 0.00172 average fractional NGS count over selection days 2 and 3 (reads of this peptide / all reads for the bait, averaged over …. With chain 1 Q2G the screen value was 0.000233 average fractional NGS count over selection days 2 and 3 (reads of this peptide / all reads for the bait, averaged over …. With chain 1 S9A the screen value was 0.000813 average fractional NGS count over selection days 2 and 3 (reads of this peptide / all reads for the bait, averaged over …. For chain 1 S9I, the screen value was 0.00144 average fractional NGS count over selection days 2 and 3 (reads of this peptide / all reads for the bait, averaged over …. For chain 1 S9P, the screen value was 0.000122 average fractional NGS count over selection days 2 and 3 (reads of this peptide / all reads for the bait, averaged over …. For chain 1 S9M, the screen value was 0.00474 average fractional NGS count over selection days 2 and 3 (reads of this peptide / all reads for the bait, averaged over …. In the case of chain 1 S9V, the screen value is reported as 0.0149 average fractional NGS count over selection days 2 and 3 (reads of this peptide / all reads for the bait, averaged over …. chain 1 S9E was tested, and the screen value was 0.00024 average fractional NGS count over selection days 2 and 3 (reads of this peptide / all reads for the bait, averaged over …. chain 1 S9T was tested, and the screen value was 0.00132 average fractional NGS count over selection days 2 and 3 (reads of this peptide / all reads for the bait, averaged over …. For chain 1 S9K, the screen value was 0.000447 average fractional NGS count over selection days 2 and 3 (reads of this peptide / all reads for the bait, averaged over ….
